Settings in all cases: both partners purified
Test [1] has as its target T1, human CRM1 (HsCRM1), wild type (human, UniProt O14980 1-1071).
T1 construct: human CRM1 / Exportin-1 (XPO1); Always used together with RanGTP (ScRanGTP in the pull-downs); also called Exportin-1; XPO1
The experiment in a line: differential bleaching; competition titration of MBP-NES to FITC-PKI NES and CRM1 with excess RanGTP; triplicate; fitted with a set of direct titrations.

Test [2] concerns the target engineered ScCRM1 (residues 1-1058, △377-413, 537DLTVK541 to GLCEQ, V441D) (S. cerevisiae, UniProt P30822 1-1058, △377–413 | 537DLTVK541 to GLCEQ | V441D). The test can be described thus: crystal structure; NES peptide bound to the engineered ScCRM1-RanGppNHp-Yrb1p complex; crystallised as in Fung et al., 2015.
The target of test [3] is T1, human CRM1 (HsCRM1), wild type. The experiment in a line: pull-down; ~10 µg immobilized GST-NES, 2.5 µM HsCRM1 and 7.5 µM ScRanGTP in 200 µL.
Test [4] concerns the target T2, human CRM1 mutant HsCRM1(K568M) (human, UniProt O14980 1-1071, K568M).
T2 construct: human CRM1 / Exportin-1 (XPO1) with K568M; Used together with RanGTP
The experiment in a line: pull-down; ~5 µg immobilized GST-NESs, 7.5 µM ScRanGTP and 2.5 µM HsCRM1 (wild type or mutant) in 200 µL.

Test [5] has as its target T3, human CRM1 mutant HsCRM1(K568A) (human, UniProt O14980 1-1071, K568A).
T3 construct: human CRM1 / Exportin-1 (XPO1) with K568A; Used together with RanGTP
Described as above.

Test [6] addresses T2, human CRM1 mutant HsCRM1(K568M). The experiment in a line: pull-down; ~5 µg immobilized GST-NESs, 500 nM HsCRM1 (wild type or mutant) and 1.5 µM ScRanGTP in 1 mL.
The target of test [7] is T1, human CRM1 (HsCRM1), wild type. The test is described as above.
Test [8] has as its target T3, human CRM1 mutant HsCRM1(K568A). The description is as above.
Test [9] addresses engineered ScCRM1(K579A) mutant (S. cerevisiae, UniProt P30822 1-1058, △377–413 | 537DLTVK541 to GLCEQ | V441D | K579A). The test can be described thus: crystal structure; NES peptide bound to the engineered ScCRM1-RanGppNHp-Yrb1p complex; crystallised as in Fung et al., 2015.

T1 sequence (O14980 whole entry): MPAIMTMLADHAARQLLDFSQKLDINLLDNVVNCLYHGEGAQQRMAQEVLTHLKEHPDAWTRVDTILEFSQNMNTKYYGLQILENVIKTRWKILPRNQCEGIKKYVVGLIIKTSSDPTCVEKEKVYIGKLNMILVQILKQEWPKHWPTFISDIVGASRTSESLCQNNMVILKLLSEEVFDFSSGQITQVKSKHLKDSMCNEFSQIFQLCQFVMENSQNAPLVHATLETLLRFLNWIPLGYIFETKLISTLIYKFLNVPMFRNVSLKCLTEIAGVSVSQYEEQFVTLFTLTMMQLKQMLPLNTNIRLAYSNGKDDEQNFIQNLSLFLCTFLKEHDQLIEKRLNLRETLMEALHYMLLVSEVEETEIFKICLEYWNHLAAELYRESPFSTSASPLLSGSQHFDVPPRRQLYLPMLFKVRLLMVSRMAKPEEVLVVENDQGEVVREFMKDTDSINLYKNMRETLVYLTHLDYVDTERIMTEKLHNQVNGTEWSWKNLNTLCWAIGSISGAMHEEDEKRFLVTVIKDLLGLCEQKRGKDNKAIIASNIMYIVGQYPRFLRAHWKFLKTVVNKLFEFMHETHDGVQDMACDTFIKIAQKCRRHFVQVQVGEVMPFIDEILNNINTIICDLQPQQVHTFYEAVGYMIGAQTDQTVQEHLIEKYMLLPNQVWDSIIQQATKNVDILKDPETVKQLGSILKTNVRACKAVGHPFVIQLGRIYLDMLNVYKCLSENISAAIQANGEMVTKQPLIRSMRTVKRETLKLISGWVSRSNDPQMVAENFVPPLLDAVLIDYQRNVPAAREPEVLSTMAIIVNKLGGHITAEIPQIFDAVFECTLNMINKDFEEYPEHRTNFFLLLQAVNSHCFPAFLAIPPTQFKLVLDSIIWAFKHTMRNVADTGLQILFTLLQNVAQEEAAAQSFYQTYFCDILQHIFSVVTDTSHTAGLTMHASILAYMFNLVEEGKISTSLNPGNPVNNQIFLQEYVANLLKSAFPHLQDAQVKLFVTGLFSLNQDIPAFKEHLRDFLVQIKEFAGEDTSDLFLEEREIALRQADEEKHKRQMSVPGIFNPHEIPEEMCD
T3 sequence (O14980 whole entry K568A): as the sequence (O14980 whole entry) above, with K568A counted along it
T2 sequence (O14980 whole entry K568M): as the sequence (O14980 whole entry) above, with K568M counted along it

NSNELALKLAGLDANKT [PKI NES(Φ4A) mutant (MBP fusion)] came in with a Kd in test [1] of 150 µM.

B1: CDC7 NES peptide (crystallised) (peptide)
peptide: QDLRKLCERLRGMDSSTP
notes: cell division cycle 7-related protein kinase (CDC7), residues 456-473; Extra N-terminal residues such as those printed for mDia2 (GGSY) and FMRP-1b (GGS) may be present; source: expressed and purified as described in Fung et al., 2015
Turning to B1, in test [2], the binding result is on record as “binds”.

B2: GST-CDC7 NES (peptide)
chain: QDLRKLCERLRGMDSSTP
notes: cell division cycle 7-related protein kinase (CDC7), residues 456-473; source: as described in Fung et al., 2015; not shown: GST, N-terminal, kept
On to B2, for which the binding result in [3] is reported as “binds”.

B3: GST-DEAF1 peptide (false positive NES) (peptide)
chain: SWLYLEEMVNSLLNTAQQ
notes: Deformed Epidermal Autoregulatory Factor 1 homolog (DEAF1), residues 452-469; also called GST-NESs; source: as described in Fung et al., 2015; not shown: GST, N-terminal, kept
For B3, the binding result in [4] and in test [5] was “binds” throughout.

B4: GST-Hxk2 peptide (false positive NES) (peptide)
chain: DVPKELMQQIENFEKIFTV
notes: Hexokinase-2 (Hxk2), residues 18-36; also called GST-NESs; source: as described in Fung et al., 2015; not shown: GST, N-terminal, kept
On to B4, for which, in test [5], the binding result was “binds”.

B5: GST-X11L2 NES (peptide)
chain: SSLQELVQQFEALPGDLV
notes: source: as described in Fung et al., 2015; not shown: GST, N-terminal, kept
On to B5, for which the binding result in [6], in [7] and in test [8] was “binds” throughout.

B6: MBP-X11L2 NES (peptide)
chain: SSLQELVQQFEALPGDLV
notes: also called MBP-NES; not shown: MBP, N-terminal, kept
For B6, in test [1], the binding result is “binds”.

B7: MBP-HDAC5 NES (peptide)
chain: EAETVSAMALLSVG
notes: Histone deacetylase 5 (HDAC5), residues 1082-1095; also called HDAC^NES; MBP-NES; not shown: MBP, N-terminal, kept
Turning to B7, the binding result in test [1] is “binds”.

B8: MBP-SMAD4 NES (peptide)
chain: YERVVSPGIDLSGLTLQ
notes: Mothers against decapentaplegic homolog 4 (SMAD4), residues 133-149; also called MBP-NES; not shown: MBP, N-terminal, kept
As to B8, in test [1], the binding result is reported as “binds”.

B9: MBP-FMRP NES (peptide)
chain: YLKEVDQLRLERLQI
notes: fragile X mental retardation protein (FMRP), residues 423-437; also called MBP-NES; not shown: MBP, N-terminal, kept
With B9, in test [1], the binding result was “binds”.

B10: DEAF1 peptide (crystallised, false positive NES) (peptide)
peptide: SWLYLEEMVNSLLNTAQQ
notes: Deformed Epidermal Autoregulatory Factor 1 homolog (DEAF1), residues 452-469; Extra N-terminal residues such as those printed for mDia2 (GGSY) and FMRP-1b (GGS) may be present; also called DEAF^pep; source: expressed and purified as described in Fung et al., 2015
On to B10, for which, in test [9], the binding result was “binds”.

B11: MBP-mDia2 NES (wild type) (peptide)
chain: SVPEVEALLARLRAL
notes: mouse diaphanous homolog 3 (mDia2), residues 1179-1193; also called wild type mDia2^NES; not shown: MBP, N-terminal, kept
The molecule B11 registered a Kd in test [1] of 1.7 µM.

B12: Paxillin NES peptide (crystallised) (peptide)
peptide: RELDELMASLSDFKFMAQ
notes: Paxillin, residues 264-281; Extra N-terminal residues such as those printed for mDia2 (GGSY) and FMRP-1b (GGS) may be present; also called Pax^NES; source: expressed and purified as described in Fung et al., 2015
Regarding B12, the binding result in [2] was “binds”.

B13: MBP-Paxillin NES (peptide)
chain: RELDELMASLSDFKFMAQ
notes: Paxillin, residues 264-281; also called Pax^NES; MBP-NES; not shown: MBP, N-terminal, kept
Consider B13, for which, in [1], the binding result was “binds”.

B14: X11L2 NES peptide (crystallised) (peptide)
peptide: SSLQELVQQFEALPGDLV
notes: Extra N-terminal residues such as those printed for mDia2 (GGSY) and FMRP-1b (GGS) may be present; source: expressed and purified as described in Fung et al., 2015
Consider B14, for which, in [2], the binding result is reported as “binds”.

B15: MBP-CDC7 NES (peptide)
chain: QDLRKLCERLRGMDSSTP
notes: cell division cycle 7-related protein kinase (CDC7), residues 456-473; also called MBP-NES; not shown: MBP, N-terminal, kept
With B15, the binding result in [1] was “binds”.

B16: SMAD4 NES peptide (crystallised) (peptide)
peptide: YERVVSPGIDLSGLTLQ
notes: Mothers against decapentaplegic homolog 4 (SMAD4), residues 133-149; Extra N-terminal residues such as those printed for mDia2 (GGSY) and FMRP-1b (GGS) may be present; source: expressed and purified as described in Fung et al., 2015
With B16, in [2], the binding result is given as “binds”.

B17: FMRP NES peptide (crystallised) (peptide)
peptide: YLKEVDQLRLERLQI
notes: fragile X mental retardation protein (FMRP), residues 423-437; Extra N-terminal residues such as those printed for mDia2 (GGSY) and FMRP-1b (GGS) may be present; source: expressed and purified as described in Fung et al., 2015
For the molecule B17, the binding result in [2] was “binds”.

B18: mDia2 NES peptide (crystallised) (peptide)
peptide: GGSYSVPEVEALLARLRAL
notes: residues printed before the NES in the crystallised peptide; not of mDia2; mouse diaphanous homolog 3 (mDia2), residues 1179-1193; source: expressed and purified as described in Fung et al., 2015
Consider B18, for which the binding result in test [2] is on record as “binds”.

B19: Hxk2 peptide (crystallised, false positive NES) (peptide)
peptide: DVPKELMQQIENFEKIFTV
notes: Hexokinase-2 (Hxk2), residues 18-36; Extra N-terminal residues such as those printed for mDia2 (GGSY) and FMRP-1b (GGS) may be present; source: expressed and purified as described in Fung et al., 2015
In the case of B19, the binding result in test [9] is “binds”.

B20: HDAC5 NES peptide (crystallised) (peptide)
peptide: EAETVSAMALLSVG
notes: Histone deacetylase 5 (HDAC5), residues 1082-1095; Extra N-terminal residues such as those printed for mDia2 (GGSY) and FMRP-1b (GGS) may be present; also called HDAC^NES; source: expressed and purified as described in Fung et al., 2015
Consider B20, for which the binding result in test [2] is reported as “binds”.

A word on the Kd: it is the concentration at which binding is half-saturated.
